Measured values from the supplement of paper PMC10567573.

B1: ZNF263 (parent)
chain: QRTHTGEKPYKCPECGEIFAHSSN

Variants of: B1
Test: protein stability index of a GFP-peptide fusion (GPS, HEK-293T) (PSI 1-6); higher = more stable
Conditions: c terminus: a fixed tail appended
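Further: lentivirally expressed fusions sorted by FACS into six bins by GFP to DsRed ratio, PSI derived from sequencing read proportions per bin multiplied by bin number.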

Protein stability index, by site and new letter:
C15: N 4.76; G 4.96; A 4.3; Y 3.68; V 4.42; P 4.51; L 3.97; W 3.88; D 4.8; F 3.39; K 4.75; S 4.29; M 4.88; R 4.29; I 4.04; E 4.82; Q 4.48; T 4.63; H 4.09
H21: L 2.3; P 3.5; D 2.5; G 3.22; K 3.78; T 3.15; V 2.35; W 1.95; I 2.05; R 3.16; C 3.5; F 2.74; N 2.86; S 3.43; Q 3.43; M 3.19; E 3.21; Y 2.86; A 2.95
P13: R 2.94; S 3.41; V 3.48; L 3.56; Y 3.57; M 2.71; W 2.71; T 3.34; Q 3.67; N 4.29
S22: E 3.62; A 2.88; C 4.15; F 2.8; D 3.64
A20: R 2.93; G 3.16; Y 3.49; T 3.11; E 3.76; S 3.83; C 3.75; P 3.53; H 3.45; F 3.18; I 3.46; M 3.25; Q 3.59; L 2.63; D 3.67; W 3.07; K 3.25; V 3.04; N 3.55
I18: P 3.43; E 3.99; S 2.53; L 3.18; V 3.56; Y 3.48; T 3.9; A 3.48; K 3.83; H 3.29; G 4.05; M 3.73; F 2.97; D 3.52; W 2.41; C 3.87; Q 3.91; R 3; N 3.79
G16: W 2.64; R 3; M 3.45; V 3.61; L 3.22; P 4.06; A 3.54; T 3.43; D 3.9; K 3.27; F 2.92; E 4; N 3.09; Y 3.18; S 3.14; I 2.67; H 3.31; Q 3.23; C 2.84
F19: S 3.84; N 4.37; V 3.46; I 3.37; H 4.82; D 4.87; Y 3.7; A 4.38; Q 3.83; M 3.56; G 4.28; T 4.1; C 4.9; L 3.16; R 3.75; W 2.47; E 4.25; K 4.08; P 3.75
E17: P 3.72; A 4.67; H 4.49; S 4.02; D 3.13; Q 3.86; M 3.27; T 4.77; V 2.6; W 3.01; R 3.38; K 3.98; I 2.85; Y 4.23; N 3.83; G 2.53; L 2.6; C 4.6; F 4.53
E14: A 4.22; S 3.77; I 3.25; L 2.34; R 3.77; N 4.24; Q 2.73; W 2.63; M 3.82; D 3.1; T 3.12; K 3.75; Y 2.97; C 3.71; G 3.31; V 2.95; P 3.52; H 3.82; F 3.09
